Experimental data published in doi:10.1101/2020.05.16.099382 (bioRxiv, 2020).
Like-named read-outs stand apart in the source and are kept apart here.

B1: Rubisco large subunit of Nostoc sp. PCC 7120 (natural protein, UniProt P00879 1-476, looked up)
chain: MSYAQTKTQTKSGYKAGVQDYRLTYYTPDYTPKDTDILAAFRVTPQPGVPFEEAAAAVAAESSTGTWTTVWTDLLTDLDRYKGRCYDIEPVPGEDNQFIAYIAYPLDLFEEGSITNVLTSIVGNVFGFKALRALRLEDIRFPVAYIKTFQGPPHGIQVERDKLNKYGRPLLGCTIKPKLGLSAKNYGRAVYECLRGGLDFTKDDENINSAPFQRWRDRFLFVADAITKAQAETGEIKGHYLNVTAPTCEEMLKRAEYAKELKQPIIMHDYLTAGFTANTTLARWCRDNGVLLHIHRAMHAVIDRQKNHGIHFRVLAKALRLSGGDHIHTGTVVGKLEGERGITMGFVDLLRENYVEQDKSRGIYFTQDWASLPGVMAVASGGIHVWHMPALVEIFGDDSVLQFGGGTLGHPWGNAPGATANRVALEACVQARNEGRNLAREGNDVIREAAKWSPELAVACELWKEIKFEFEAMDTV

What was measured:
[1] = biological target: B1; experiment: cryo-EM structure
cryo-EM structure = biological target: the molecule itself; experiment: cryo-EM structure
SEC-MALS = biological target: the molecule itself; experiment: SEC-MALS
[2] = biological target: B1; experiment: cryo-EM structure; remark: listed apart in the source

Row | Binder | stoichiometry N (SEC-MALS) | further results
1 | Rubisco small subunit of Nostoc sp. PCC 7120 (natural protein, UniProt P06514 1-109, looked up) MQTLPKERRYETLSYLPPLTDVQIEKQVQYILSQGYIPAVEFNEVSEPTELYWTLWKLPLFGAKTSREVLAEVQSCRSQYPGHYIRVVGFDNIKQCQILSFIVHKPSRY |  | binding result [1]: binds
2 | B1 |  | binding result (cryo-EM structure): binds
3 | NosRcaΔC (NosRca lacking the C-terminal 123 residues: linker and SSUL domain) (domain or fragment, Nostoc sp. PCC 7120, UniProt P58555 2-291, looked up) SYYIAPRFLDKLAVHITKNFLNIPGVRVPLILGIHGRKGEGKTFQCELAFEKMGIEVTLISGGELESPDAGDPARLIRLRYRETAELIKVRGKMCVLMINDLDAGAGRFDEGTQYTVNTQLVNATLMNIADNPTDVQLPGSYDSNPIRRVPIIVTGNDFSTLYAPLIRDGRMEKFYWEPNRDDKVGIVGGIFAEDGLSQREIEQLVDTFPKQSIDFFSALRSRIYDIQIRDFIHKVGFERISLRVVNSLEAPPEFKKPDFSLAHLIESGNLVLGEQQRVDNSQLVDEYNR | 6 | 
4 | NosRcaΔC L244D/N248A/L250A (domain or fragment, Nostoc sp. PCC 7120, UniProt P58555 2-291, looked up) SYYIAPRFLDKLAVHITKNFLNIPGVRVPLILGIHGRKGEGKTFQCELAFEKMGIEVTLISGGELESPDAGDPARLIRLRYRETAELIKVRGKMCVLMINDLDAGAGRFDEGTQYTVNTQLVNATLMNIADNPTDVQLPGSYDSNPIRRVPIIVTGNDFSTLYAPLIRDGRMEKFYWEPNRDDKVGIVGGIFAEDGLSQREIEQLVDTFPKQSIDFFSALRSRIYDIQIRDFIHKVGFERISDRVVASAEAPPEFKKPDFSLAHLIESGNLVLGEQQRVDNSQLVDEYNR | 6 | 
5 | NosRcaΔC P140G/Y143A/D144A (domain or fragment, Nostoc sp. PCC 7120, UniProt P58555 2-291, looked up) SYYIAPRFLDKLAVHITKNFLNIPGVRVPLILGIHGRKGEGKTFQCELAFEKMGIEVTLISGGELESPDAGDPARLIRLRYRETAELIKVRGKMCVLMINDLDAGAGRFDEGTQYTVNTQLVNATLMNIADNPTDVQLGGSAASNPIRRVPIIVTGNDFSTLYAPLIRDGRMEKFYWEPNRDDKVGIVGGIFAEDGLSQREIEQLVDTFPKQSIDFFSALRSRIYDIQIRDFIHKVGFERISLRVVNSLEAPPEFKKPDFSLAHLIESGNLVLGEQQRVDNSQLVDEYNR | 6 | 
6 | NosRcaΔC V91E/R92G/G93N (domain or fragment, Nostoc sp. PCC 7120, UniProt P58555 2-291, looked up) SYYIAPRFLDKLAVHITKNFLNIPGVRVPLILGIHGRKGEGKTFQCELAFEKMGIEVTLISGGELESPDAGDPARLIRLRYRETAELIKEGNKMCVLMINDLDAGAGRFDEGTQYTVNTQLVNATLMNIADNPTDVQLPGSYDSNPIRRVPIIVTGNDFSTLYAPLIRDGRMEKFYWEPNRDDKVGIVGGIFAEDGLSQREIEQLVDTFPKQSIDFFSALRSRIYDIQIRDFIHKVGFERISLRVVNSLEAPPEFKKPDFSLAHLIESGNLVLGEQQRVDNSQLVDEYNR | 6 | 
7 | Rubisco activase ('Rca-like' protein) of Nostoc sp. PCC 7120 (natural protein, UniProt P58555 2-414, looked up) SYYIAPRFLDKLAVHITKNFLNIPGVRVPLILGIHGRKGEGKTFQCELAFEKMGIEVTLISGGELESPDAGDPARLIRLRYRETAELIKVRGKMCVLMINDLDAGAGRFDEGTQYTVNTQLVNATLMNIADNPTDVQLPGSYDSNPIRRVPIIVTGNDFSTLYAPLIRDGRMEKFYWEPNRDDKVGIVGGIFAEDGLSQREIEQLVDTFPKQSIDFFSALRSRIYDIQIRDFIHKVGFERISLRVVNSLEAPPEFKKPDFSLAHLIESGNLVLGEQQRVDNSQLVDEYNRLNRGRGYQTAPPPEAPVIQPVNNSSHKQKTSNTHLSLETQEQIRQILSQGHKITFEHVDARRFRTGSWQSCGTLHIDAESDAISTLEACLVDYDGEYVRMVGIDPKGKRRVVETIIQRPNGKN | 6 | binding result [2]: binds
8 | NosRca-IFmut (NosRca V91E/R92G/G93N/L244D/N248A/L250A) (natural protein, Nostoc sp. PCC 7120, UniProt P58555 2-414, looked up) SYYIAPRFLDKLAVHITKNFLNIPGVRVPLILGIHGRKGEGKTFQCELAFEKMGIEVTLISGGELESPDAGDPARLIRLRYRETAELIKEGNKMCVLMINDLDAGAGRFDEGTQYTVNTQLVNATLMNIADNPTDVQLPGSYDSNPIRRVPIIVTGNDFSTLYAPLIRDGRMEKFYWEPNRDDKVGIVGGIFAEDGLSQREIEQLVDTFPKQSIDFFSALRSRIYDIQIRDFIHKVGFERISDRVVASAEAPPEFKKPDFSLAHLIESGNLVLGEQQRVDNSQLVDEYNRLNRGRGYQTAPPPEAPVIQPVNNSSHKQKTSNTHLSLETQEQIRQILSQGHKITFEHVDARRFRTGSWQSCGTLHIDAESDAISTLEACLVDYDGEYVRMVGIDPKGKRRVVETIIQRPNGKN | 6 | 
